Ends that are not written are not given here. * marks the point of attachment. Dansyl = CN(C)c1cccc2c(S(=O)(=O)*)cccc12

This note sets out measurements from article PMC8705818, “Experimental Characterization of the Interaction between the N-Terminal SH3 Domain of Crkl and C3G” (International Journal of Molecular Sciences, 2021).

The target of assay [1] is dansyl-C3G277-296 peptide (UniProt Q13905). Briefly: Stopped-flow fluorescence kinetics (FRET from Trp164/Trp165 to dansyl; excitation 280 nm, 455 nm cut-off filter). kon from binding experiments, koff from separate displacement experiments, KD = koff/k. To be noted: 10 °C, 0.5 M NaCl added to all buffers, 50 mM sodium acetate at pH 5.0 and 5.5, 50 mM Bis-Tris at pH 6.0 and 6.5, 50 mM Hepes at pH 7.0 and 7.5, 50 mM Tris-HCl.

The target is the same in assay [2]. The assay is described as follows: Stopped-flow fluorescence kinetics (FRET Trp to dansyl). kon from binding, koff from displacement, KD = koff/kon. To be noted: pH 7.0, 10 °C, Hepes 50 mM pH 7.0.
In assay [3] the target is dansylated C3G_(277–296) peptide. The assay is described as follows: stopped-flow kinetics (FRET, Trp to dansyl); variants, ionic strength series: 0.5 µM dansyl peptide mixed with N-SH3 variant (D138A 2.5-6.0 µM, E140A 3.0-5.0 µM); KD = koff/kon; 50 mM Hepes pH 7.5, 0.1 M NaCl, 10 °C.
For assay [4] the target is unchanged. The assay is described as follows: stopped-flow kinetics (FRET, Trp to dansyl); variants, ionic strength series: 0.5 µM dansyl peptide mixed with N-SH3 variant (D138A 2.5-6.0 µM, E140A 3.0-5.5 µM); KD = koff/kon; 50 mM Hepes pH 7.5, 0.15 M NaCl, 10 °C.
For assay [5] the target is unchanged. Briefly: stopped-flow kinetics (FRET, Trp to dansyl); variants, ionic strength series: 0.5 µM dansyl peptide mixed with N-SH3 variant (D138A 2.5-6.0 µM, E140A 3.0-5.5 µM); KD = koff/kon; 50 mM Hepes pH 7.5, 0.05 M NaCl, 10 °C.
Assay [6] has the same target. Briefly: stopped-flow kinetics (FRET, Trp to dansyl); variants, ionic strength series: 0.5 µM dansyl peptide mixed with 2.0-4.5 µM N-SH3 variant; KD = koff/kon; 50 mM Hepes pH 7.5, 0 M NaCl, 10 °C.
Assay [7] shares this target. Briefly: stopped-flow kinetics (FRET, Trp to dansyl); pH series: 0.5 µM dansyl peptide mixed with 0.5-5.0 µM N-SH3; koff from displacement; Hepes 50 mM pH 7.5, 0.5 M NaCl, 10 °C.
For assay [8] the target is unchanged. The assay is described as follows: stopped-flow kinetics (FRET, Trp to dansyl); pH series: 0.5 µM dansyl peptide mixed with 1.5-6.0 µM N-SH3; koff from displacement; Tris-HCl 50 mM pH 8.5, 0.5 M NaCl, 10 °C.
Assay [9] has the same target. The assay is described as follows: stopped-flow kinetics (FRET, Trp to dansyl); pH series: 0.5 µM dansyl peptide mixed with 2.0-7.0 µM N-SH3; koff from displacement; 50 mM sodium acetate pH 5.5, 0.5 M NaCl, 10 °C.
Assay [10] shares this target. Briefly: stopped-flow kinetics (FRET, Trp to dansyl); ionic strength series: 0.5 µM dansyl peptide mixed with 0.5-5 µM N-SH3; koff from displacement; KD = koff/kon; Hepes 50 mM pH 7.0, 0.15 M NaCl, 10 °C.
Assay [11] has the same target. Briefly: stopped-flow kinetics (FRET, Trp to dansyl); ionic strength series: 0.5 µM dansyl peptide mixed with 0.5-5 µM N-SH3; koff from displacement; KD = koff/kon; Hepes 50 mM pH 7.0, 0.5 M NaCl, 10 °C.
The target is the same in assay [12]. Briefly: stopped-flow kinetics (FRET, Trp to dansyl); pH series: 0.5 µM dansyl peptide mixed with 0.5-5.0 µM N-SH3; koff from displacement; Bis-Tris 50 mM pH 6.5, 0.5 M NaCl, 10 °C.
For assay [13] the target is unchanged. Briefly: stopped-flow kinetics (FRET, Trp to dansyl); ionic strength series: 0.5 µM dansyl peptide mixed with 0.5-5 µM N-SH3; koff from displacement; KD = koff/kon; Hepes 50 mM pH 7.0, 1 M NaCl, 10 °C.
Assay [14] has the same target. Briefly: stopped-flow kinetics (FRET, Trp to dansyl); ionic strength series: 0.5 µM dansyl peptide mixed with 1-5 µM N-SH3; koff from displacement with excess nondansylated peptide; KD = koff/kon; Hepes 50 mM pH 7.0, 0 M NaCl, 10 °C.
For assay [15] the target is unchanged. Briefly: stopped-flow kinetics (FRET, Trp to dansyl); pH series: 0.5 µM dansyl peptide mixed with 4.0-8.0 µM N-SH3; koff from displacement; 50 mM sodium acetate pH 5.0, 0.5 M NaCl, 10 °C.
Assay [16] shares this target. The assay is described as follows: stopped-flow kinetics (FRET, Trp to dansyl); ionic strength series: 0.5 µM dansyl peptide mixed with 0.5-5 µM N-SH3; koff from displacement; KD = koff/kon; Hepes 50 mM pH 7.0, 0.3 M NaCl, 10 °C.
For assay [17] the target is unchanged. The assay is described as follows: stopped-flow kinetics (FRET, Trp to dansyl); pH series: 0.5 µM dansyl peptide mixed with 1.5-6.0 µM N-SH3; koff from displacement; Tris-HCl 50 mM pH 8.0, 0.5 M NaCl, 10 °C.
For assay [18] the target is unchanged. Briefly: stopped-flow kinetics (FRET, Trp to dansyl); pH series: 0.5 µM dansyl peptide mixed with 1.5-6.0 µM N-SH3; koff from displacement; Tris-HCl 50 mM pH 9.0, 0.5 M NaCl, 10 °C.
For assay [19] the target is unchanged. The assay is described as follows: stopped-flow kinetics (FRET, Trp to dansyl); pH series: 0.5 µM dansyl peptide mixed with 1.0-5.0 µM N-SH3; koff from displacement; Bis-Tris 50 mM pH 6.0, 0.5 M NaCl, 10 °C.
The target is the same in assay [20]. The assay is described as follows: stopped-flow kinetics (FRET, Trp to dansyl); pH series: 0.5 µM dansyl peptide mixed with 1.5-6.0 µM N-SH3; koff from displacement; Hepes 50 mM pH 7.0, 0.5 M NaCl, 10 °C.
Assay [21] concerns the target N-SH3 domain of Crkl, D141A variant. Briefly: other fluorescence titration; equilibrium: 1 µM N-SH3 D141A constant, increasing dansyl-C3G; quenching of Trp fluorescence at 350 nm (excitation 280 nm); hyperbolic fit; 50 mM Hepes pH 7.0, 10 °C.

Take “Crkl N-terminal SH3 domain (N-SH3), wild type”: the off-rate constant (koff) in assay [1] (pH 5.0) came out at 257 s⁻¹; in [1] (pH 5.5), 81 s⁻¹; in assay [1] (pH 6.0), 78 s⁻¹; in [1] (pH 6.5) it was 65 s⁻¹; in [1] (pH 7.0), 42 s⁻¹; in [1] (pH 7.5), 34 s⁻¹. In addition, the koff came to 46 s⁻¹ in assay [1] (pH 8.0); 40 s⁻¹ in assay [1] (pH 8.5); 39 s⁻¹ in [1] (pH 9.0); 12 s⁻¹ in assay [2] (0 M NaCl added); 23 s⁻¹ in assay [2] (0.15 M NaCl); 32 s⁻¹ in [2] (0.3 M NaCl). Besides, the off-rate constant (koff) came to 34 s⁻¹ in assay [2] (0.5 M NaCl) and 51 s⁻¹ in assay [2] (1.0 M NaCl). Besides, the kon came out at 4.4e+07 M⁻¹ s⁻¹ in assay [1] (pH 5.0); 3.7e+07 M⁻¹ s⁻¹ in assay [1] (pH 5.5); 1.5e+07 M⁻¹ s⁻¹ in assay [1] (pH 6.0); 6.5e+07 M⁻¹ s⁻¹ in [1] (pH 6.5); 5.2e+07 M⁻¹ s⁻¹ in assay [1] (pH 7.0); 5.1e+07 M⁻¹ s⁻¹ in assay [1] (pH 7.5). Besides, the kon in [1] (pH 8.0) stood at 5.6e+07 M⁻¹ s⁻¹; in assay [1] (pH 8.5), 6.8e+07 M⁻¹ s⁻¹; in assay [1] (pH 9.0) it was 3.9e+07 M⁻¹ s⁻¹; in assay [2] (0 M NaCl added), 1.3e+08 M⁻¹ s⁻¹; in [2] (0.15 M NaCl) it was 9.6e+07 M⁻¹ s⁻¹; in assay [2] (0.3 M NaCl), 8.3e+07 M⁻¹ s⁻¹. In addition, the kon is 5.1e+07 M⁻¹ s⁻¹ in [2] (0.5 M NaCl) and 6.8e+07 M⁻¹ s⁻¹ in assay [2] (1.0 M NaCl).
In the case of “N-SH3 domain of Crkl, D138A variant (domain or fragment)”, the dissociation constant Kd amounted to 3800 nM in assay [3], 22000 nM in assay [4], 2600 nM in assay [5] and 900 nM in assay [6]. The off-rate (koff) was 183 s⁻¹ in assay [3], 254 s⁻¹ in assay [4], 212 s⁻¹ in assay [5] and 139 s⁻¹ in assay [6]. The kon in assay [3] is 4.8e+07 M⁻¹ s⁻¹; in assay [4], 1.2e+07 M⁻¹ s⁻¹; in assay [5] it was 8.1e+07 M⁻¹ s⁻¹; in assay [6], 1.58e+08 M⁻¹ s⁻¹.
For “N-SH3 domain of Crkl, E140A variant (domain or fragment)”, the Kd was 3900 nM in [3], 4200 nM in assay [4], 3700 nM in assay [5] and 3300 nM in assay [6]. Besides, the koff in [3] came out at 302 s⁻¹; in assay [4], 339 s⁻¹; in assay [5], 330 s⁻¹; in assay [6] it was 254 s⁻¹. The kon is 7.7e+07 M⁻¹ s⁻¹ in assay [3], 8.1e+07 M⁻¹ s⁻¹ in assay [4], 8.9e+07 M⁻¹ s⁻¹ in [5] and 7.8e+07 M⁻¹ s⁻¹ in assay [6].
For the molecule “N-terminal SH3 domain of Crkl, wild type (domain or fragment)”, the Kd in assay [7] was 700 nM; in assay [8], 600 nM; in assay [9] it was 2200 nM; in assay [10], 240 nM; in assay [11] it was 660 nM; in [12], 1000 nM. For the same molecule, the Kd worked out at 750 nM in assay [13]; 90 nM in assay [14]; 5900 nM in assay [15]; 390 nM in [16]; 800 nM in assay [17]; 1000 nM in [18]. Moreover, the results for the equilibrium dissociation constant (Kd) in assay [19] and in assay [20] were 5400 nM and 800 nM, respectively. The koff in assay [7] amounted to 34 s⁻¹; in assay [8], 40 s⁻¹; in assay [9], 81 s⁻¹; in [10] it was 23 s⁻¹; in assay [11], 34 s⁻¹; in assay [12] it was 65 s⁻¹. Moreover, the koff came out at 51 s⁻¹ in assay [13]; 12 s⁻¹ in [14]; 257 s⁻¹ in [15]; 32 s⁻¹ in [16]; 46 s⁻¹ in [17]; 39 s⁻¹ in [18]. Moreover, the koff was determined as 78 s⁻¹ in [19] and 42 s⁻¹ in [20]. For the same molecule, the kon in assay [7] came to 5.1e+07 M⁻¹ s⁻¹; in assay [8] it was 6.8e+07 M⁻¹ s⁻¹; in [9], 3.7e+07 M⁻¹ s⁻¹; in [10], 9.6e+07 M⁻¹ s⁻¹; in assay [11], 5.1e+07 M⁻¹ s⁻¹; in assay [12], 6.5e+07 M⁻¹ s⁻¹. The kon in assay [13] stood at 6.8e+07 M⁻¹ s⁻¹; in assay [14], 1.3e+08 M⁻¹ s⁻¹; in assay [15], 4.4e+07 M⁻¹ s⁻¹; in [16], 8.3e+07 M⁻¹ s⁻¹; in assay [17], 5.6e+07 M⁻¹ s⁻¹; in assay [18], 3.9e+07 M⁻¹ s⁻¹. Moreover, the kon in [19] is 1.5e+07 M⁻¹ s⁻¹; in assay [20], 5.2e+07 M⁻¹ s⁻¹.
As to Dansyl-VVDNSPPPALPPKKRQSAPS [dansylated C3G_(277–296) peptide], the Kd in assay [21] is 1070 nM.
